Experimental data as given in patent publication US20020147151A1 (TRUSTEES OF BOSTON UNIVERSITY, published 2002).

Target: T1, native GST (UniProt P08515 1-218 = GST)
T1 construct: also called rGST; GST alone
Experiment: pull-down of 35S-labeled rIL-16 on GST-coated glutathione-Sepharose beads, autoradiography (control for non-specific binding)
Experimental: Specificity of the interaction between rIL-16 and D3D4 was assessed by competition with an excess of unlabeled rIL-16. ³⁵S-labeled rIL-16 incubated with GST (lane 1); ³⁵S-labeled rIL-16 incubated with GST-D3D4 (lane 2); ³⁵S-labeled rIL-16 plus excess unlabelled rIL-16 incubated with GST-D3D4 (lane 3); ³⁵S-labeled rIL-16 plus 10 ug/ml peptide A (lane 4); ³⁵S-labeled rIL-16 plus 10 ug/ml peptide B (lane 5); ³⁵S-labeled rIL-16 plus 10 ug/ml peptide C (lane 6); ); ³⁵S-labeled rIL-16 plus 10 ug/ml peptide A and peptide B (lane 7). The arrow indicates the position of IL-16 on the gel. The identity of this band was re-confirmed by immunoblotting with anti-IL-16 antibody.
To investigate IL-16 interaction with the D3D4 of CD4, the GST-D3D4 fusion protein, or GST alone, was bound to the glutathione-conjugated Sepharose 4B beads. Five ul of the in vitro translation product containing ³⁵S-labeled rIL16 was added to 15 ul of the bead-bound proteins in 230 ul of PBS and 50 ul of NETN buffer (150 mM NaCl, 1 mM EDTA, 0.5% NP 40, and 50 mM Tris, pH 8.0). After incubating at 4° C. for 2 h, the beads were washed 3 times in NETN buffer. The GST-D3D4 or GST proteins were released from the beads by boiling in SDS gel loading buffer, and the supernatant was analyzed by 12% SDS-polyacrylamide gel electrophoresis (SDS-PAGE). The presence of ³⁵S-labeled mrIL16 was detected by autoradiography of the dried gel. […]

T1 sequence (P08515 whole entry): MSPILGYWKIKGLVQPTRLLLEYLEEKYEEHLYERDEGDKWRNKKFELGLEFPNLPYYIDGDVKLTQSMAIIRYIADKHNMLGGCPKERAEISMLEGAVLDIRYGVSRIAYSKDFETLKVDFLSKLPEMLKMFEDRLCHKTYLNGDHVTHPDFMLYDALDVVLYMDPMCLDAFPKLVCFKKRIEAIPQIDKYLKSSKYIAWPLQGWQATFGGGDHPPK

- binding result: no binding
B1: 35S-labeled murine rIL-16 (in vitro transcription and translation product, C-terminal 119 amino acids) (ligand, mouse, UniProt O54824 1204-1322, looked up)
chain: DSAASASAASDISVESKEATVCTVTLEKTSAGLGFSLEGGKGSLHGDKPLTINRIFKGTEQGEMVQPGDEILQLAGTAVQGLTRFEAWNVIKALPDGPVTIVIRRTSLQCKQTTASADS
modifications: [35S] methionine
notes: domain: C-terminal 119 amino acids; also called radiolabeled murine IL-16; 35S-labeled rIL-16
